Results taken from FireProtDB (doi:10.1021/bi300982v).

Settings: Thermus thermophilus, pH 7, sodium phosphate 50 mM, transition: 2, reversible: yes, whole UniProt chain shown; for denaturant midpoint (higher = more stable): 25 °C, GdnHCl

B1: Cytochrome c-552 wild type, P04164 (protein)
chain: QADGAKIYAQCAGCHQQNGQGIPGAFPPLAGHVAEILAKEGGREYLILVLLYGLQGQIEVKGMKYNGVMSSFAQLKDEEIAAVLNHIATAWGDAKKVKGFKPFTAEEVKKLRAKKLTPQQVLAERKKLGLK
denaturant midpoint (higher = more stable) (absorbance): 3.6 M
denaturant midpoint (higher = more stable) (far-UV-CD): 4.1 M
denaturant midpoint (higher = more stable) (heme-CD): 3.4 M
Tm (Thermal, CD): 95 °C
heat capacity change of unfolding (Thermal, CD): 0.31 kcal/mol/K
unfolding enthalpy (calorimetric) (Thermal, CD): 30.4 kcal/mol
unfolding free energy (Thermal, CD): 3.11 kcal/mol
